The source of these data is the supplement of paper PMC12042874.

± gives the uncertainty stated by the source.

The first data set in a line: amyloid nucleation score (Sup35N fusion, yeast selection) (log enrichment); library NNK2; higher = more nucleation; inactive = no reads after selection. The method in brief:
(§1)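 For the nucleation score, DiMSum gave the log enrichment of output over input reads, centred on the mode score of non-aggregating sequences. Psi-negative yeast expressing Sup35N fused to peptides of 20 random codons were induced with 100 μM copper sulfate for 24 hours and grown 7 days at 30°C on medium lacking adenine and uracil. Input and output plasmid inserts were Illumina-sequenced, and sequences with under 100 input reads were excluded.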
In turn, WDIIF registered an amyloid nucleation score of -1.45 ± 0.34.

On to GAVHGMT, for which the amyloid nucleation score came to 0.538 ± 0.55.

Regarding LEVLVLDVYSYVSLHVGTFV, the amyloid nucleation score came out at 0.051 ± 0.35.

CCIRQCNMRIKADDQRRDVI: the amyloid nucleation score was 0.109 ± 0.53.

As for RPSNKT, the amyloid nucleation score came to 0.761 ± 0.56.

For the substance PAIYILLWAYSRSSACWLTA, the amyloid nucleation score entry was “inactive”.

On to SFQCSWIG, for which the amyloid nucleation score came out at 3.04 ± 0.088.

FILQQAYGDWFTVDSNSCIM had an amyloid nucleation score of -1.64 ± 1.1.

GSDAVR registered an amyloid nucleation score of 2.7 ± 0.082.

With LYHYPS, the amyloid nucleation score entry was “inactive”.

LMYVCSLNNPLFMYANLL showed an amyloid nucleation score of 5.54 ± 0.084.

For RETLAFA, the amyloid nucleation score was -0.329 ± 0.33.

As for VRFTLYGCWGLMFFTMVGR, the amyloid nucleation score entry is “inactive”.

Substance GSYSWSELSCMLFLFVGVSR had an amyloid nucleation score of 0.411 ± 0.53.

In turn, HLGSDRGDAWVANVKPERWD showed an amyloid nucleation score of 1.03 ± 0.31.

The substance VVKYFCDHI came in with an amyloid nucleation score of 4.5 ± 0.07.

As to LSACIALASGYVGISGW, the amyloid nucleation score result was “inactive”.

Substance STLHQSIKTGDIFFDSGTFV registered an amyloid nucleation score of -0.889 ± 0.49.

Regarding NALADRRFTISPRIFAYLLL, the amyloid nucleation score is 0.312 ± 0.65.

With LSPVVRSMKDVLQCESVDDR, the amyloid nucleation score was 0.191 ± 0.5.

Consider GLGSPLHIWNIFVRRWYHRY, for which the amyloid nucleation score result was “inactive”.

On to LKNVCFCIWRISWNKISQKI, for which the amyloid nucleation score result was “inactive”.

Regarding GRRMIRAERTIRLIIHVRSL, the amyloid nucleation score stood at 0.767 ± 0.6.

SNFVTVSGTPPHIILMCKDW: the amyloid nucleation score is 4.71 ± 0.055.

For NPRGWAVEMVDYHSTFLKPE, the amyloid nucleation score came out at 5.64 ± 0.075.

LSMELNVYVERWWFSKLDRG came in with an amyloid nucleation score of -1.26 ± 0.49.

For NSGCLSLGFRHLSNPWLHS, the amyloid nucleation score came out at 2.71 ± 0.096.

TGCRVGHCIYVYVSEVSSNP yielded an amyloid nucleation score of 0.903 ± 0.34.

In turn, SLYKHSTHWRLCSTMAIVKP gave an amyloid nucleation score of 0.953 ± 0.51.

For the substance NYDRTIW, the amyloid nucleation score was -1.01 ± 0.48.

Turning to DAWYMDFLSCACWIHWR, the amyloid nucleation score stood at 0.871 ± 0.45.

Substance VVILS registered an amyloid nucleation score of 1.28 ± 0.29.

FFVKNASSSFFLLKRLSWT showed an amyloid nucleation score of -0.59 ± 1.1.

Consider MYYYSSCKNVQKSHPSSRMQ, for which the amyloid nucleation score entry was “inactive”.

For the substance VEINNNE, the amyloid nucleation score is -0.065 ± 0.56.

The substance IAFYMLSWGMMLV returned an amyloid nucleation score of -0.074 ± 0.8.

In turn, ECYDFYTWESYGLGCTSCEK displayed an amyloid nucleation score of -0.01 ± 0.43.

TYLWSLGYVSFQL had an amyloid nucleation score of -0.206 ± 0.79.

As to IYVPIGATQ, the amyloid nucleation score was -1.26 ± 0.78.

The substance ITAFTNRVKFWS yielded an amyloid nucleation score of 0.132 ± 0.36.

With PLQPTQTYPFNSVFDGHKRV, the amyloid nucleation score entry is “inactive”.

As to CWRFVSCNTNYNWTMQGFYY, the amyloid nucleation score is -1.38 ± 1.1.

RTRRSSTGGRNEASGNRSAG: the amyloid nucleation score turned out to be 2.87 ± 0.13.

Take FEACVTGMLSDRF: the amyloid nucleation score is -0.871 ± 0.41.

Take TYHIYFVCLKSLWRFGEDCL: the amyloid nucleation score is 4.37 ± 0.055.

Turning to FVKWIMY, the amyloid nucleation score was found to be 4.09 ± 0.098.

In turn, LALKGLLFSHNGKLEKGQV came in with an amyloid nucleation score of -0.17 ± 0.79.

The substance YFFRVSYVEFVRCFGFSCRW registered an amyloid nucleation score of -0.846 ± 0.41.

Substance LVYFKRRLPTRLIANRRMNG displayed an amyloid nucleation score of -0.845 ± 0.76.

The substance LISVDFRYYGYVVLGWISTL returned an amyloid nucleation score of 0.807 ± 0.1.

For the substance CMQLSYSYSLTFEGQCHLVG, the amyloid nucleation score stood at 4.27 ± 0.088.

Consider VVVPDGFRNYEYGNSTLFVI, for which the amyloid nucleation score was -0.99 ± 1.1.

In the case of VRAQKRSWGQGSL, the amyloid nucleation score was 1.23 ± 0.14.

For MHQVFIKEYAEYYRVCERRM, the amyloid nucleation score was 2.05 ± 0.064.

As for SMRVYHSHLNWFH, the amyloid nucleation score was determined as 6.63 ± 0.063.

Turning to YCINGLGIGTELCVFTTKWM, the amyloid nucleation score was -0.479 ± 0.3.

HVGFHQKVRSELCRA registered an amyloid nucleation score of 0.087 ± 0.51.

Consider SCNAGVGSIS, for which the amyloid nucleation score was -0.011 ± 0.46.

For IYIWCARHEILWYRNGWGRG, the amyloid nucleation score worked out at 0.2 ± 0.36.

Substance SYFHNHWFCLRQFRVDASWC displayed an amyloid nucleation score of -0.047 ± 0.46.

Turning to RYRSTLQYISVMGLDNT, the amyloid nucleation score is -0.608 ± 0.54.

As for KRNLVCAISFLDSRSCRRTA, the amyloid nucleation score came to 0.119 ± 0.24.

ARWWMSSKRR showed an amyloid nucleation score of 0.026 ± 0.65.

GLPVCYNRVT displayed an amyloid nucleation score of -1.22 ± 1.

Take SIWINFLNLWYQCFISSILG: the amyloid nucleation score entry was “inactive”.

Take IMYLLGKGLWTVAVYPSRYP: the amyloid nucleation score is -0.806 ± 0.61.

The substance MMIFLGLTSFKFLMSAVNTM yielded an amyloid nucleation score of 0.628 ± 0.38.

As to QSKFDTFGSFACTYRYFTAN, the amyloid nucleation score came to 0.698 ± 0.8.

Consider FFFFTNRVTKAVSYGYLMDD, for which the amyloid nucleation score is -0.491 ± 0.63.

NEHYGRTMTN displayed an amyloid nucleation score of -0.064 ± 1.1.

As to TESIFCSYSWVCVGVMSNYD, the amyloid nucleation score was 5.1 ± 0.071.

On to RKVLLVGCCPLVLKIVFCSV, for which the amyloid nucleation score was 7.734 ± 0.048.

With RVLVSS, the amyloid nucleation score was found to be 0.713 ± 0.8.

Regarding ISEFHGYSMFKHEARQNGCQ, the amyloid nucleation score amounted to 5.516 ± 0.033.

EVEIVAWFGLHHSWWH showed an amyloid nucleation score of 3.25 ± 0.08.

On to ASGSKDACGCATSCV, for which the amyloid nucleation score worked out at 0.86 ± 0.13.

In the case of SYEVNIYKLRLQGSSSGF, the amyloid nucleation score was 3.44 ± 0.066.

EYSRVLTGVFLIQSYCKFGN yielded an amyloid nucleation score of -0.219 ± 0.2.

Substance LSCNMFDPVGQWCCGKKVGA came in with an amyloid nucleation score of 1.07 ± 0.42.

RFDRTRCETKSRLVRIR displayed an amyloid nucleation score of 0.084 ± 0.41.

For the substance QLICTMNFVAEYNWSALRRN, the amyloid nucleation score was 4.55 ± 0.12.

As to GSRYTEKIPGNRNRSRISL, the amyloid nucleation score is -0.484 ± 0.35.

For the substance FVWSFHCCMARWYGLGCSYM, the amyloid nucleation score is 1.1 ± 0.15.

For HMNYKYFWGGLFNRMLGQLN, the amyloid nucleation score result is “inactive”.

Substance LDISSDPFFSS returned an amyloid nucleation score of -1.25 ± 1.1.

In turn, FGLVHRIPRFVLWILSLGSG showed an amyloid nucleation score of -0.012 ± 1.1.

Turning to IFCRIDYIYVYLHHVYVTVQ, the amyloid nucleation score was 5.228 ± 0.036.

In turn, VFFGPTFCFVPYVNMRCLVP showed an amyloid nucleation score of 8.082 ± 0.059.

On to NEVSGNGLFSIFSQSGKSYY, for which the amyloid nucleation score result is “inactive”.

For the substance DHRILILLTPQFSYDIWTVH, the amyloid nucleation score entry was “inactive”.

On to DNDRHNAVALRSSVIVLLGK, for which the amyloid nucleation score entry is “inactive”.

YLLLLIMDLFKGRACHPRHA: the amyloid nucleation score entry was “inactive”.

SGRIYSGDETMFRWECRYWC returned an amyloid nucleation score of 3.25 ± 0.051.

Take FMQPYTCRSDFDRK: the amyloid nucleation score stood at 0.052 ± 0.48.

On to IKTIADIYCISQSRIGSKLT, for which the amyloid nucleation score entry is “inactive”.

For SVLTCKLK, the amyloid nucleation score result is “inactive”.

In the case of VITGYCA, the amyloid nucleation score was 2.48 ± 0.094.

WCCPPHGRQP gave an amyloid nucleation score of 0.876 ± 0.43.

NVPCGYEWSFNLCIMGEASS showed an amyloid nucleation score of 6.842 ± 0.049.

In turn, AFMSYTSSSRYPVCYLSKFH returned an amyloid nucleation score of -0.74 ± 1.1.

As to GWPHKVEFKVNDIFMIFSMM, the amyloid nucleation score stood at 5.281 ± 0.034.

Consider IWNWRQYLYVLGADRFSYMC, for which the amyloid nucleation score was 4.19 ± 0.049.

NAHKTNLVQTLVNRLIELMD came in with an amyloid nucleation score of 0.223 ± 0.29.

GWFGARRGMSIYRVHNWFVF came in with an amyloid nucleation score of 5.738 ± 0.048.

For FCDFY, the amyloid nucleation score is -1.2 ± 0.41.

In turn, PVNRQNFFSCD showed an amyloid nucleation score of -1.67 ± 0.62.

In turn, GNSISFVYQSLICFNCDLSV registered an amyloid nucleation score of 7.453 ± 0.024.

Another data set in a line: amyloid nucleation score (Sup35N fusion, yeast selection) (log enrichment); library NNK1; higher = more nucleation; inactive = no reads after selection. The method in brief: as §1
As for SMHSLGSHEGSRRIPGLSFD, the amyloid nucleation score is -0.007 ± 1.2.

GPWAGVRVRSTCLVRYSWYG: the amyloid nucleation score stood at 0.242 ± 0.44.

VLSAYSFYVSIWYNFSFIYG gave an amyloid nucleation score of 0.689 ± 0.57.

Turning to LVIALSQTDAYGELVSRNMC, the amyloid nucleation score turned out to be 1.06 ± 0.97.

Regarding SVWMCM, the amyloid nucleation score was found to be 2.64 ± 0.1.

In turn, YRTNRKEHSYVLLYARRPSQ gave an amyloid nucleation score of 0.56 ± 0.72.

In turn, PTGNGKLFSGKYYPYDVRRS displayed an amyloid nucleation score of -0.169 ± 0.29.

For the substance TELSEHVRSRLWSKG, the amyloid nucleation score came out at 0.355 ± 0.42.

Substance KLILWGRLSANNFYYSFGFL yielded an amyloid nucleation score of -0.214 ± 0.27.

Consider MASRHKEWRCVMYEHGLRAC, for which the amyloid nucleation score worked out at 0.58 ± 1.2.

Take WHASNFLTSSSHKMSSNWTS: the amyloid nucleation score stood at 0.67 ± 0.48.

VSTSNSYDSSQHDLDFRQSG registered an amyloid nucleation score of -0.162 ± 0.63.

Substance KCLTLSCILDVCKNIVEEMI had an amyloid nucleation score of 0.047 ± 0.46.

PWSPTVIRPVFSEKGQFSQL had an amyloid nucleation score of -0.538 ± 0.59.

With PLTLFYLLNTHAVEFSKVNC, the amyloid nucleation score was -0.674 ± 0.47.

YCRFWVDFFVFESILDSPPN: the amyloid nucleation score stood at 0.093 ± 0.32.

In the case of VWMLTMSAFKVYWLNFINYA, the amyloid nucleation score is -0.037 ± 0.22.

SARHSMAEAMEYYIFGWVPR yielded an amyloid nucleation score of -1.16 ± 1.2.

SDNTMSPKLCLMASWVRIST displayed an amyloid nucleation score of 0.418 ± 0.23.

ERSARGGHPMLAFYMTIPTP: the amyloid nucleation score is -0.067 ± 1.2.

Take VMKGSRHVRDKRALYYDILR: the amyloid nucleation score is -0.308 ± 0.59.

Substance NGMVTLYR displayed an amyloid nucleation score of 0.977 ± 0.55.

Regarding VSKTTRSCCWELFEA, the amyloid nucleation score was -0.052 ± 0.42.

Turning to MLEVKPLTCMVSPIYDFMPG, the amyloid nucleation score is -0.134 ± 0.41.

Turning to FLKGYHCVNDDSGNFFIVYI, the amyloid nucleation score was 2.02 ± 0.11.

NLEWGLYISTANCPRNYDKA: the amyloid nucleation score entry is “inactive”.

Regarding TGASLLVAHRTYSEIILRCD, the amyloid nucleation score amounted to 0.606 ± 0.49.

LFLSSCLNSGLGGTL: the amyloid nucleation score came to 0.105 ± 0.29.

NDVFEHIITFCILRVYHMFC: the amyloid nucleation score is -0.577 ± 0.3.
